Experimental data: paper PMC10239980, “A new portable toluidine blue/aptamer complex-on-polyethyleneimine-coated gold nanoparticles-based sensor for label-free electrochemical detection of alpha-fetoprotein”

Target: T1, Alpha-fetoprotein (AFP) (UniProt P02771 19-609)
T1 sequence: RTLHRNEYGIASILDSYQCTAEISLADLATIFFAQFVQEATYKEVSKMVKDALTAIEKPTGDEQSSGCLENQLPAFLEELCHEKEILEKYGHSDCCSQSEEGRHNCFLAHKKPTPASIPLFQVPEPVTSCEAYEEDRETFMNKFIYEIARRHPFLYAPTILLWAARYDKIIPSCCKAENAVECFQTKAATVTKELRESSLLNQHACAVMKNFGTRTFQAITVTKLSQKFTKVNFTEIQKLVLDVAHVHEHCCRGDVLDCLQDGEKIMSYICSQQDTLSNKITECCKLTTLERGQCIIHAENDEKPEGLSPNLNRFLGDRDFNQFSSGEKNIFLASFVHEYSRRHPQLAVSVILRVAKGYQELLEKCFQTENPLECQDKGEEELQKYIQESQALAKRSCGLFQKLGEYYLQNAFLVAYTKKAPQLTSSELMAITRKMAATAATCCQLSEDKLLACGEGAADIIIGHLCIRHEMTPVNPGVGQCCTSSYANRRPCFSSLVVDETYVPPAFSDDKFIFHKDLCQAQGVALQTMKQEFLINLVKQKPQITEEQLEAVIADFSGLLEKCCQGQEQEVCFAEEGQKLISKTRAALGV
Experiment: electrochemical aptasensor (DPV, CV, EIS); toluidine blue, BSA-blocked PEI-AuNPs electrode; 50 ng/mL AFP lowers DPV current ca. 39 to 26 uA; 10 mM sodium phosphate buffer pH 7.0, 30 min incubation at room temperature; CV in 10 mM PBS pH 7.4 with 5 mM [Fe(CN)6]3-
Conditions: protein: commercial

B1: AFP-specific aptamer (75-mer) (ssDNA)
DNA: GTGACGCTCCTAACGCTGACTCAGGTGCAGTTCTCGACTCGGTCTTGATGTGGGTCCTGTCCGTCCGAACCAATC
  binding result: binds
